For orientation: Kd means the concentration at which binding is half-saturated.

Non-standard residues stand in square brackets, D forms with d. No end group written: not given here. pT = C[C@@H](OP(=O)(O)O)[C@H](N)C(=O)O

Assay [1] deals with degenerate peptide library GAXXXB(pS/pT)QJXXXAKKK (SEQ ID NO: 62). The experiment in a line: GST-(BRCT)2 on glutathione beads, soluble degenerate library, Edman sequencing of bound peptides.
Assay [2] has as its target degenerate peptide library Met-Ala-X-X-X-X-pSer-X-X-X-X-X-Ala-Lys-Lys-Lys (SEQ ID NO: 58). Described as above.
Assay [3] concerns the target degenerate peptide library MAXXXXpTXXXXAKKK (SEQ ID NO: 47). The description is as above.
Assay [4] concerns the target degenerate peptide library GAXXXXpSXXFXXAYKKK (SEQ ID NO: 59). The assay is described as above.
Assay [5] has as its target T1, BRCTtide-7pT, GAAYDI-pT-… (Artificial Sequence).
T1 sequence (peptide, phosphothreonine (pT) at position 7): GAAYDITQVFPFAKKK
The experiment in a line: isothermal titration calorimetry, peptide injected into GST-PTIP BRCT domains. (In general: In ITC the heat of successive injections is recorded.)

Assay [6] deals with T2, BRCTtide-7pS, GAAYDI-pS-… (Artificial Sequence).
T2 sequence (peptide, phosphoserine (pS) at position 7): GAAYDISQVFPFAKKK
Described as above.

Assay [7] shares this target. Kind of assay: isothermal titration calorimetry, peptide injected into GST-BRCA1 BRCT domains.
Assay [8] deals with GST-Plk1 (full-length), prepared in SF9 cells (human).
Assay [9] concerns the target degenerate peptide library MAXXXXSpTXXXXAKKK (SEQ ID NO: 48). The experiment in a line: GST-PBD on glutathione beads, oriented peptide library screening.
For assay [10], the target named is degenerate peptide library MAXXXXpTPXXXXAKKK (SEQ ID NO: 46). The assay is described as above.

B1: GST-PTIP tandem BRCT domains (residues 550-757) (protein)
chain: TPELTPFVLFTGFEPVQVQQYIKKLYILGGEVAESAQKCTHLIASKVTRTVKFLTAISVVKHIVTPEWLEECFRCQKFIDEQNYILRDAEAEVLFSFSLEESLKRAHVSPLFKAKYFYITPGICPSLSTMKAIVECAGGKVLSKQPSFRKLMEHKQNSSLSEIILISCENDLHLCREYFARGIDVHNAEFVLTGVLTQTLDYESYKFN
In the case of B1, the selectivity ratio, Phe at (pSer/pThr)+3 in assay [1] was determined as 7. In assay [2], the selectivity ratio, Phe at pSer+3 stood at 2.3. The selectivity ratio, Ile at pThr-1 in assay [3] came out at 2.1. In addition, the selectivity ratio, Ile at pSer+5 in assay [4] was found to be 1.9. For the same molecule, the Kd amounted to 14300 nM in assay [5] and 280 nM in assay [6].

B2: GST-BRCA1 tandem BRCT domains (residues 1634-1863) (protein)
chain: REKPELTASTERVNKRMSMVVSGLTPEEFMLVYKFARKHHITLTNLITEETTHVVMKTDAEFVCERTLKYFLGIAGGKWVVSYFWVTQSIKERKMLNEHDFEVRGDVVNGRNHQGPKRARESQDRKIFRGLEICCYGPFTNMPTDQLEWMVQLCGASVVKELSSFTLGTGVHPIVVVQPDAWTEDNGFHAIGQMCEAPVVTREWVLDSVALYQCQELDTYLIPQIPHSHY
On to B2, for which, in [1], the selectivity ratio, Phe at (pSer/pThr)+3 amounted to 7.5. The selectivity ratio, Phe at pSer+3 in [2] turned out to be 2.4. Also, the selectivity ratio, Phe at pThr+3 in [3] turned out to be 1.9. For the same molecule, the selectivity ratio, Phe at pSer+1 in [4] is 2.1. The Kd in [7] worked out at 400 nM.

For the molecule MAGPMQS[pT]PLNGAKK [PoloBoxtide-optimal, MAGPMQ-S-pT-P-LNGAKK], in assay [8], the Plk1 kinase activity towards casein (32P incorporation, SDS-PAGE/autoradiography) is 2.6 fold.

B3: GST-hPlk3 PBD (human Plk3 residues 335-646) (protein)
chain: TPPNPARSLFAKVTKSLFGRKKKSKNHAQERDEVSGLVSGLMRTSVGHQDARPEAPAASGPAPVSLVETAPEDSSPRGTLASSGDGFEEGLTVATVVESALCALRNCIAFMPPAEQNPAPLAQPEPLVWVSKWVDYSNKFGFGYQLSSRRVAVLFNDGTHMALSANRKTVHYNPTSTKHFSFSVGAVPRALQPQLGILRYFASYMEQHLMKGGDLPSVEEVEVPAPPLLLQWVKTDQALLMLFSDGTVQVNFYGDHTKLILSGWEPLLVTFVARNRSACTYLASHLRQLGCSPDLRQRLRYALRLLRDRSPA
In the case of B3, the selectivity ratio, Pro at pThr+1 in assay [9] is 1.6. Moreover, the selectivity ratio, Ser at pThr-1 in assay [10] amounted to 3.

B4: GST-hPlk2 PBD (human Plk2 residues 355-685) (protein)
chain: HLSSPAKNFFKKAAAALFGGKKDKARYIDTHNRVSKEDEDIYKLRHDLKKTSITQQPSKHRTDEELQPPTTTVARSGTPAVENKQQIGDAIRMIVRGTLGSCSSSSECLEDSTMGSVADTVARVLRGCLENMPEADCIPKEQLSTSFQWVTKWVDYSNKYGFGYQLSDHTVGVLFNNGAHMSLLPDKKTVHYYAELGQCSVFPATDAPEQFISQVTVLKYFSHYMEENLMDGGDLPSVTDIRRPRLYLLQWLKSDKALMMLFNDGTFQVNFYHDHTKIIICSQNEEYLLTYINEDRISTTFRLTTLLMSGCSSELKNRMEYALNMLLQRCN
Regarding B4, in assay [9], the selectivity ratio, Pro at pThr+1 worked out at 1.7. Also, the selectivity ratio, Ser at pThr-1 in [10] was determined as 7.5.

B5: GST-Cdc5p PBD (Saccharomyces cerevisiae Cdc5p residues 357-705) (protein)
chain: EDIPEEQSLVNFKDCMEKSLLLESMSSDKIQRQKRDYISSIKSSIDKLEEYHQNRPFLPHSLSPGGTKQKYKEVVDIEAQRRLNDLAREARIRRAQQAVLRKELIATSTNVIKSEISLRILASECHLTLNGIVEAEAQYKMGGLPKSRLPKIKHPMIVTKWVDYSNKHGFSYQLSTEDIGVLFNNGTTVLRLADAEEFWYISYDDREGWVASHYLLSEKPRELSRHLEVVDFFAKYMKANLSRVSTFGREEYHKDDVFLRRYTRYKPFVMFELSDGTFQFNFKDHHKMAISDGGKLVTYISPSHESTTYPLVEVLKYGEIPGYPESNFREKLTLIKEGLKQKSTIVTVD
For B5, the selectivity ratio, Pro at pThr+1 in assay [9] amounted to 1.4. For the same molecule, the selectivity ratio, Ser at pThr-1 in assay [10] is 5.3.

The record behind these values is patent publication US20110104713A1, “PRODUCTS AND PROCESSES FOR MODULATING PEPTIDE-PEPTIDE BINDING DOMAIN INTERACTIONS” (priority 2002, published 2011).
